Source: US11957762B2, “Immune tolerant and non-immune tolerant elastin-like recombinant peptides and methods of use” (University of Utah Research Foundation, priority 2015, dated 2024)

B1: G(GAGVPG)70G(GVLPGVG)28G(ESIINFEKLT)2GG (protein)
chain: GGAGVPGGAGVPGGAGVPGGAGVPGGAGVPGGAGVPGGAGVPGGAGVPGGAGVPGGAGVPGGAGVPGGAGVPGGAGVPGGAGVPGGAGVPGGAGVPGGAGVPGGAGVPGGAGVPGGAGVPGGAGVPGGAGVPGGAGVPGGAGVPGGAGVPGGAGVPGGAGVPGGAGVPGGAGVPGGAGVPGGAGVPGGAGVPGGAGVPGGAGVPGGAGVPGGAGVPGGAGVPGGAGVPGGAGVPGGAGVPGGAGVPGGAGVPGGAGVPGGAGVPGGAGVPGGAGVPGGAGVPGGAGVPGGAGVPGGAGVPGGAGVPGGAGVPGGAGVPGGAGVPGGAGVPGGAGVPGGAGVPGGAGVPGGAGVPGGAGVPGGAGVPGGAGVPGGAGVPGGAGVPGGAGVPGGAGVPGGAGVPGGAGVPGGAGVPGGAGVPGGESIINFEKLTESIINFEKLTGG
B2: ST-NP: stable NP of the fusion iTEPB70-iTEPA56-pOVA (SEQ ID NO: 60) (protein)
chain: GGAGVPGGAGVPGGAGVPGGAGVPGGAGVPGGAGVPGGAGVPGGAGVPGGAGVPGGAGVPGGAGVPGGAGVPGGAGVPGGAGVPGGAGVPGGAGVPGGAGVPGGAGVPGGAGVPGGAGVPGGAGVPGGAGVPGGAGVPGGAGVPGGAGVPGGAGVPGGAGVPGGAGVPGGAGVPGGAGVPGGAGVPGGAGVPGGAGVPGGAGVPGGAGVPGGAGVPGGAGVPGGAGVPGGAGVPGGAGVPGGAGVPGGAGVPGGAGVPGGAGVPGGAGVPGGAGVPGGAGVPGGAGVPGGAGVPGGAGVPGGAGVPGGAGVPGGAGVPGGAGVPGGAGVPGGAGVPGGAGVPGGAGVPGGAGVPGGAGVPGGAGVPGGAGVPGGAGVPGGAGVPGGAGVPGGAGVPGGAGVPGGAGVPGGAGVPGGAGVPGGGVLPGVGGVLPGVGGVLPGVGGVLPGVGGVLPGVGGVLPGVGGVLPGVGGVLPGVGGVLPGVGGVLPGVGGVLPGVGGVLPGVGGVLPGVGGVLPGVGGVLPGVGGVLPGVGGVLPGVGGVLPGVGGVLPGVGGVLPGVGGVLPGVGGVLPGVGGVLPGVGGVLPGVGGVLPGVGGVLPGVGGVLPGVGGVLPGVGGGGGGGGGCGGGGGGGGCGGGGGGGGCGGGGGGGGCGESIINFEKLTESIINFEKLTGG
B3: RED-NP: reductive-environment dependable NP, disulfide stabilized fusion iTEPB70-iTEPA28-(G8C)4-pOVA (SEQ ID NO: 61) (protein)
chain: GGAGVPGGAGVPGGAGVPGGAGVPGGAGVPGGAGVPGGAGVPGGAGVPGGAGVPGGAGVPGGAGVPGGAGVPGGAGVPGGAGVPGGAGVPGGAGVPGGAGVPGGAGVPGGAGVPGGAGVPGGAGVPGGAGVPGGAGVPGGAGVPGGAGVPGGAGVPGGAGVPGGAGVPGGAGVPGGAGVPGGAGVPGGAGVPGGAGVPGGAGVPGGAGVPGGAGVPGGAGVPGGAGVPGGAGVPGGAGVPGGAGVPGGAGVPGGAGVPGGAGVPGGAGVPGGAGVPGGAGVPGGAGVPGGAGVPGGAGVPGGAGVPGGAGVPGGAGVPGGAGVPGGAGVPGGAGVPGGAGVPGGAGVPGGAGVPGGAGVPGGAGVPGGAGVPGGAGVPGGAGVPGGAGVPGGAGVPGGAGVPGGAGVPGGAGVPGGAGVPGGGVLPGVGGVLPGVGGVLPGVGGVLPGVGGVLPGVGGVLPGVGGVLPGVGGVLPGVGGVLPGVGGVLPGVGGVLPGVGGVLPGVGGVLPGVGGVLPGVGGVLPGVGGVLPGVGGVLPGVGGVLPGVGGVLPGVGGVLPGVGGVLPGVGGVLPGVGGVLPGVGGVLPGVGGVLPGVGGVLPGVGGVLPGVGGVLPGVGGCGCGCGCGESIINFEKLTESIINFEKLTGG

How the values were obtained:
[1] = Critical micelle concentration by pyrene assay; assay type: physicochemical; settings: pyrene assay in PBS
Description: Measurement of critical micelle concentrations (CMCs) of iTEP-vaccine fusions by pyrene assay. The CMCs of iTEP-vaccine fusions (NPs) were measured through fluorescence spectra by using pyrene as a hydrophobic fluorescent probe as described previously with some adjustments (Ohyanagi et al., Jpn J Clin Oncol, 2011; 41(5); 718-22; Dreher et al., J Am Chem Soc, 2008; 130(2):687-94). Briefly, the fusions were serially 2×time diluted in PBS starting from 250 μM in 96-well black clear-bottom plates. The final volume for each dilution was 150 μL. Three μL of a stock solution of 30 μM pyrene in ethanol was added to each well and mixed well. Fluorescence of these samples were scanned using an Infinite M1000 PRO plate reader (Tecan Trading AG, Switzerland) with the setting: Ex: 334 nm with a slit of 10 nm, Em: ranging 360-400 nm with a slit of 2.5 nm. Four peaks were recorded for pyrene between 360-400 nm. The ratio of emission peak number 1 (I1; 370-373 nm) and emission peak number 3 (I3; 381-384 nm) of pyrene (I1/I3) was plotted as a function of iTEP concentration. The data points were fitted to a sigmoidal-dose response curve, and the CMC was defined as the inflection point of the curve.

[2] = Thermally-induced reversible phase transition (turbidity OD350 vs temperature); assay type: physicochemical
From the text: Characterization of thermally-induced, reversible, inverse phase transition of iTEPs and the iTEPB-iTEPA-pOVA fusion. The phase transitions of iTEP or iTEP fusions were characterized by turbidity changes of sample solutions as a function of temperature. Specifically, the optical density at 350 nm (OD350) of a sample solution was monitored using an UV-visible spectrophotometer equipped with a multi-cell thermoelectric temperature controller (Cary 300, Varian Instruments, Walnut Creek, CA) while the solution was heated from 20° C. to 80° C. and then cooled to 20° C. at a rate of 1° C./min. The maximum first derivative of the turbidity curve of a sample was identified. The transition temperature (Tt) of the sample is the temperature that corresponds to the maximum derivative.

[3] = tested on: endothelial cells (EA.hy926 and bEnd.3) and fibroblasts (3T3); test: Cellular uptake of iTEP-vaccine fusions by control cells; assay type: cell-based; settings: 5 μM coumarin-labeled fusions, 4 h
Description: Cellular uptake of iTEP-vaccine fusions. DC2.4, EA.hy926, bEnd.3, 3T3 cells were plated at 1.5×10^5/500 μL/well in 24-well plates. When the cells attached to the bottom of the plate (4 h or overnight), the media was replaced with 500 μL of fresh media with or without 5 μM of coumarine labeled iTEP-vaccine fusions. After being cultured for 4 h at 37° C. in 5% CO2, the cells were collected and washed twice with PBS. The fluorescence of the cells was measured by flow cytometry (collecting 5×10^4 events per sample).

[4] = Quantification of free sulfhydryl groups (Ellman's method); assay type: physicochemical
Description: Quantification of free sulfhydryl groups of RED-NP after reducing treatments. Twenty mg of RED-NP were dissolved in 2 mL of H2O and treated with 1 mM of GSH for 16 h. The solution was then dialyzed (membrane cutoff MW: 3,500 Dalton) in deionized water at 4° C. for 24 h. Then the sample was concentrated to 0.5 mL using Amicon centrifugal filter devices (Millipore, USA). Numbers of free sulfhydryl groups of RED-NP were determined by Ellman's method. Briefly, 250 μL of sample and 50 μL of Ellman's reagent (Thermo Scientific, USA) were added to 2.5 mL of reaction buffer (0.1 M sodium phosphate, pH 8.0, 1 mM EDTA). After 15 min of incubation at room temperature, the OD412 was measured. To generate a standard curve of free sulfhydryl groups, OD412 of serial dilutions of cysteine hydrochloride monohydrate was measured. The serial OD412 values were plotted against concentrations of cysteine hydrochloride monohydrate to generate a standard curve. Concentrations of free sulfhydryl groups in the RED-NP samples were determined from the standard curve and used to calculate numbers of free sulfhydryl groups per iTEP-vaccine fusion molecules.

Molecule	CMC (critical micelle concentration) [1] [µM]	temperature of sharp increase of turbidity (formation of aggregates) [2] [°C]	Tt (cooling) ([2]; 25 μM in H2O) [°C]	Tt (heating) ([2]; 25 μM in H2O) [°C]	uptake by endothelial cells and fibroblasts relative to the MS-NP [3]	free sulfhydryl groups, on average ([4]; after the treatment of 1 mM of GSH)	free sulfhydryl groups, on average ([4]; before GSH treatment)
B1	120.6	70	73.70 ± 0.23	75.40 ± 0.14	–	–	–
B2	23.94	–	–	–	either the same amount or less	–	–
B3	–	–	–	–	–	two	zero
